Among the data in publication PMC6555819, “Comprehensive study of nuclear receptor DNA binding provides a revised framework for understanding receptor specificity” are binding signal values, retold here.

Series [1] addresses RARb:RXRa (Homo sapiens, UniProt P10826;P19793 full;full). Description: no ligand; PBM; 270 nM : 90 nM RXRa; PBS pH 7.4, 2% milk, 0.02% Triton X-100, 1 mM DTT, BSA, 0.4 mg/ml salmon testes DNA. The note with it: tags: His kept;His cleaved; copies: 1;1; label: surface-attached array probe. In a few lines:
(§1)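 For binding z-scores, the reference was random background probes on custom Agilent 4×180K protein-binding microarrays. These arrays were incubated 1 h with ligand-free nuclear receptor dimers in PBS pH 7.4, 2% milk, 0.02% Triton X-100, 1 mM DTT, 0.2 mg/mL BSA and 0.4 mg/ml salmon testes DNA. Fluorescence was scanned after antibody detection of each partner (one per run) and regression-normalized.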

In series [2] the target is PXR:RXRa (Homo sapiens, UniProt O75469;P19793 full;full). Described as above. The following applies: tags: His kept;His cleaved; copies: 1;1; label: surface-attached array probe. A digest of the protocol:
as §1

For series [3], the target named is RXRa (Homo sapiens, UniProt P19793). Description: no ligand; PBM; 180 nM; PBS pH 7.4, 2% milk, 0.02% Triton X-100, 1 mM DTT, BSA, 0.4 mg/ml salmon testes DNA. The following applies: tags: His cleaved; chain copies: 2; label: surface-attached array probe.
Sequence of RXRa (P19793 whole entry): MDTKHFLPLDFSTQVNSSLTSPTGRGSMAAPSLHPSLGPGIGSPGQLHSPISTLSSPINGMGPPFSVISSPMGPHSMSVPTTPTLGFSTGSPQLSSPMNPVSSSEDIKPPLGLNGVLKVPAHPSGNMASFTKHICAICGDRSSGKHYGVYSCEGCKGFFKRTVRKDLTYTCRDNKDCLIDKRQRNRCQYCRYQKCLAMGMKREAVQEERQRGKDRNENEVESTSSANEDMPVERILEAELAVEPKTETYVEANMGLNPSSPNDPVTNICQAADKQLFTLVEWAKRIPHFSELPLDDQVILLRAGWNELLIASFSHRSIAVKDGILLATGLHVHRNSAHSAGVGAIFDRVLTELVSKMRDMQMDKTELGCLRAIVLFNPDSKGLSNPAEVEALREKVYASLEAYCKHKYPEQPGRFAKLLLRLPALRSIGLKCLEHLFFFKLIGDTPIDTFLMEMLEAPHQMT
In series [4] the target is PPARa:RXRa (Homo sapiens, UniProt Q07869;P19793 full;full). Description: no ligand; PBM; 270 nM : 90 nM RXRa; PBS pH 7.4, 2% milk, 0.02% Triton X-100, 1 mM DTT, BSA, 0.4 mg/ml salmon testes DNA. The following applies: tags: GST kept;His cleaved; copies: 1;1; label: surface-attached array probe. A digest of the protocol: as §1
Sequence of PPARa:RXRa (Q07869 whole entry, chain 1 of 2): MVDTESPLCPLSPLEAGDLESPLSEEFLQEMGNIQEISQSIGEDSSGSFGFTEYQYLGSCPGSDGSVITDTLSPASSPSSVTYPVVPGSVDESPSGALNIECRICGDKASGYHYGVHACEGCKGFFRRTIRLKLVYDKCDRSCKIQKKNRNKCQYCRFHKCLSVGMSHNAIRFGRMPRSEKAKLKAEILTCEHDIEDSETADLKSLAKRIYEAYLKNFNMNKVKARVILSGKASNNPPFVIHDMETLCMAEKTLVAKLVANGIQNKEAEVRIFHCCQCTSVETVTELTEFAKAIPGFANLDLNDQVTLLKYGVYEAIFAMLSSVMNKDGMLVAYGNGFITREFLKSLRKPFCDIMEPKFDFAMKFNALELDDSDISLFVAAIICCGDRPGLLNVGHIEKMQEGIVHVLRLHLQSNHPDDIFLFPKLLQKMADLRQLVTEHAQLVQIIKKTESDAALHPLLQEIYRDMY
Sequence of PPARa:RXRa (P19793 whole entry, chain 2 of 2): as the sequence (P19793 whole entry) above
Series [5] addresses RARg:RXRa (Homo sapiens, UniProt P13631;P19793 full;full). The description is as above. The note with it: tags: His kept;His cleaved; copies: 1;1; label: surface-attached array probe. In a few lines: as §1
For series [6], the target named is FXR:RXRa (Homo sapiens, UniProt Q96RI1;P19793 full;full). The description is as above. The following applies: tags: His kept;His cleaved; copies: 1;1; label: surface-attached array probe. A digest of the protocol:
as §1

Sequence of PXR:RXRa (O75469 whole entry, chain 1 of 2): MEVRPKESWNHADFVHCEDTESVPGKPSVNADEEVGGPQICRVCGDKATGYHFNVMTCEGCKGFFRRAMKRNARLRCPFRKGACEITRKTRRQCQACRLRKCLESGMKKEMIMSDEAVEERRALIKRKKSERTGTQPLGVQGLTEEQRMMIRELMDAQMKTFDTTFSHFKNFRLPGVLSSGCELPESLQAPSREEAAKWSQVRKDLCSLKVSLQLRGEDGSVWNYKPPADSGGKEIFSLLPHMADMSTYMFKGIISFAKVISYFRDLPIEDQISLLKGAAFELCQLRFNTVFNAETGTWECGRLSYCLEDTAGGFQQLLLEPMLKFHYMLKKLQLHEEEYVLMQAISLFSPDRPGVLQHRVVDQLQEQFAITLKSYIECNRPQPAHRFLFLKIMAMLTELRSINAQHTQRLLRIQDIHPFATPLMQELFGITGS
Sequence of PXR:RXRa (P19793 whole entry, chain 2 of 2): as the sequence (P19793 whole entry) above
Sequence of RARb:RXRa (P10826 whole entry, chain 1 of 2): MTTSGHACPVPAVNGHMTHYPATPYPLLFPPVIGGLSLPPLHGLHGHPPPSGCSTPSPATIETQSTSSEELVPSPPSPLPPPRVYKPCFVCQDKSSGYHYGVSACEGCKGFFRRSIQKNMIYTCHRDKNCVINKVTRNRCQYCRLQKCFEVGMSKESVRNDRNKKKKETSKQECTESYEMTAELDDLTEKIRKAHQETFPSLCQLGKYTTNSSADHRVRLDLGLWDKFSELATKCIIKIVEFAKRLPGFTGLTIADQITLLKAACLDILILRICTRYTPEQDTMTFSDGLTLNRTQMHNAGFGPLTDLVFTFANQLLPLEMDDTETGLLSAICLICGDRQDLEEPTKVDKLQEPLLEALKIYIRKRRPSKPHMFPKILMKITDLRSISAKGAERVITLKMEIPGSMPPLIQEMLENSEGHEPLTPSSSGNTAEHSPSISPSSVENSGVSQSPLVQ
Sequence of RARb:RXRa (P19793 whole entry, chain 2 of 2): as the sequence (P19793 whole entry) above
Sequence of RARg:RXRa (P13631 whole entry, chain 1 of 2): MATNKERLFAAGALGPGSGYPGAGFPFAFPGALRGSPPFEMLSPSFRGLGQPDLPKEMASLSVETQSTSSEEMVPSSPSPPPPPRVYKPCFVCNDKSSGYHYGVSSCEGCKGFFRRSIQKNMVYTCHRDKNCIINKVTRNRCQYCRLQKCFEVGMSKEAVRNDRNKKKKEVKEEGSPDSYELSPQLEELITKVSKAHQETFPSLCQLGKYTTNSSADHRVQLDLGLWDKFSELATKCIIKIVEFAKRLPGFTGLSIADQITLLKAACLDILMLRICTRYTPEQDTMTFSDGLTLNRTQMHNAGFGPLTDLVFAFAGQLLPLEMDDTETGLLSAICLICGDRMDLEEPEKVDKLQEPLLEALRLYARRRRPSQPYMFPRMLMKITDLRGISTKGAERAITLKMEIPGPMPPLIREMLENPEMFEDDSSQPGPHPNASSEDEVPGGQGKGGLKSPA
Sequence of RARg:RXRa (P19793 whole entry, chain 2 of 2): as the sequence (P19793 whole entry) above
Sequence of FXR:RXRa (Q96RI1 whole entry, chain 1 of 2): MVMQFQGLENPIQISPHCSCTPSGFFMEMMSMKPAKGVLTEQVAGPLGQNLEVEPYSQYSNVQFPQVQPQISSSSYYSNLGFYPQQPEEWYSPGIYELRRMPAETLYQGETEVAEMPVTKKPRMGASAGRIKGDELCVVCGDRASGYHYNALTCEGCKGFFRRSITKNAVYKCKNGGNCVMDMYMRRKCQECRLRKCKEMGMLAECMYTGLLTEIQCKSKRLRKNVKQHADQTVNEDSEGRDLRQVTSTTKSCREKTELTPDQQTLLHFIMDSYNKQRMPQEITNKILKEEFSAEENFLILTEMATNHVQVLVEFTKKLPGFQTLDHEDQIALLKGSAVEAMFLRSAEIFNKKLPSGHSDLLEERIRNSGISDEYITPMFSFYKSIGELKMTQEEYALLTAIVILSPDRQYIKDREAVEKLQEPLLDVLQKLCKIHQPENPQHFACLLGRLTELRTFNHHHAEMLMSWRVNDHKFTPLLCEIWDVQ
Sequence of FXR:RXRa (P19793 whole entry, chain 2 of 2): as the sequence (P19793 whole entry) above

B1: NRC3_wobSeed84_DR3_T8G_o1 (dsDNA)
DNA 1: GCCCGACGGGGGCAGAAAGGTTACCATACCATCCGGGCGATTGACAGCGTAGAATGAAGG
DNA 2: CCTTCATTCTACGCTGTCAATCGCCCGGATGGTATGGTAACCTTTCTGCCCCCGTCGGGC
Consider B1, for which the binding signal is 3.11 PBM z-score against 500 random probes in series [1] and 3.49 PBM z-score against 500 random probes in series [2].

B2: NRC3_wobSeed85_DR3_C13A_o1 (dsDNA)
DNA 1: GCCGTCCAAGGTAAGAGAGGTCAGTGAATGCCGAGTGCGATTGACAGCGTAGAATGAAGG
DNA 2: CCTTCATTCTACGCTGTCAATCGCACTCGGCATTCACTGACCTCTCTTACCTTGGACGGC
Regarding B2, the figures for the binding signal in series [1] and in series [2] were 3.07 PBM z-score against 500 random probes and 3.25 PBM z-score against 500 random probes, respectively.

B3: NRC3_random_hg19_432_o1 (dsDNA)
DNA 1: GCATGTCAATGGTAGTTTGATGGGAATAGTATTGAGGCGATTGACAGCGTAGAATGAAGG
DNA 2: CCTTCATTCTACGCTGTCAATCGCCTCAATACTATTCCCATCAAACTACCATTGACATGC
Consider B3, for which the figures for the binding signal in series [2] and in series [3] were -0.12 PBM z-score against 500 random probes and 0.02 PBM z-score against 500 random probes, respectively.

B4: NRC3_random_hg19_329_o1 (dsDNA)
DNA 1: GCAGGGATGAATAGATCGAAGTTACTGCCCATTCAAGCGATTGACAGCGTAGAATGAAGG
DNA 2: CCTTCATTCTACGCTGTCAATCGCTTGAATGGGCAGTAACTTCGATCTATTCATCCCTGC
As to B4, the binding signal in series [2] was 0.08 PBM z-score against 500 random probes.

B5: NRC3_random_hg19_462_o1 (dsDNA)
DNA 1: GCCTGCTGCTTTCCTGATTACTGTAGCATCAGGTACGCGATTGACAGCGTAGAATGAAGG
DNA 2: CCTTCATTCTACGCTGTCAATCGCGTACCTGATGCTACAGTAATCAGGAAAGCAGCAGGC
Take B5: the binding signal in series [2] is -0.18 PBM z-score against 500 random probes.

B6: NRC3_random_hg19_215_o1 (dsDNA)
DNA 1: GCTGTGGTCCCAAACACCTCAAGCATGACAATGCGTGCGATTGACAGCGTAGAATGAAGG
DNA 2: CCTTCATTCTACGCTGTCAATCGCACGCATTGTCATGCTTGAGGTGTTTGGGACCACAGC
Consider B6, for which the binding signal in series [2] is -0.46 PBM z-score against 500 random probes.

B7: NRC3_random_hg19_157_o1 (dsDNA)
DNA 1: GCCCAAGATCTTGCCACTGCACTCCAGCCTGGATGAGCGATTGACAGCGTAGAATGAAGG
DNA 2: CCTTCATTCTACGCTGTCAATCGCTCATCCAGGCTGGAGTGCAGTGGCAAGATCTTGGGC
In the case of B7, the binding signal in series [2] was -0.24 PBM z-score against 500 random probes.

B8: NRC3_random_hg19_344_o1 (dsDNA)
DNA 1: GCCGGAAGAGAATTCTTGCCTGCCCACTGGTAGAATGCGATTGACAGCGTAGAATGAAGG
DNA 2: CCTTCATTCTACGCTGTCAATCGCATTCTACCAGTGGGCAGGCAAGAATTCTCTTCCGGC
Consider B8, for which the binding signal in series [2] is -0.71 PBM z-score against 500 random probes; in series [3], -0.83 PBM z-score against 500 random probes.

B9: NRC3_random_hg19_147_o1 (dsDNA)
DNA 1: GCCTCTTGCTCCCTATTGGTCTATTGCACTGCAGAGGCGATTGACAGCGTAGAATGAAGG
DNA 2: CCTTCATTCTACGCTGTCAATCGCCTCTGCAGTGCAATAGACCAATAGGGAGCAAGAGGC
As for B9, the binding signal in series [2] is 0.25 PBM z-score against 500 random probes; in series [4], 0.48 PBM z-score against 500 random probes.

B10: NRC3_random_hg19_9_o1 (dsDNA)
DNA 1: GCAGGACTCCTCGTGAAGAGCAGGTGGGAGCGAGTCGCGATTGACAGCGTAGAATGAAGG
DNA 2: CCTTCATTCTACGCTGTCAATCGCGACTCGCTCCCACCTGCTCTTCACGAGGAGTCCTGC
Consider B10, for which the binding signal in series [2] is -0.76 PBM z-score against 500 random probes; in series [5], -0.88 PBM z-score against 500 random probes.

B11: NRC3_random_hg19_246_o1 (dsDNA)
DNA 1: GCCTCCAGACTGCCTTCAGATTCAAGACGCAAAGGCGCGATTGACAGCGTAGAATGAAGG
DNA 2: CCTTCATTCTACGCTGTCAATCGCGCCTTTGCGTCTTGAATCTGAAGGCAGTCTGGAGGC
In the case of B11, the binding signal in series [2] is -0.41 PBM z-score against 500 random probes.

B12: NRC3_random_hg19_340_o1 (dsDNA)
DNA 1: GCGCCTTGTCCTTCTGCAGCTGCTGGTGCAGCCCAGGCGATTGACAGCGTAGAATGAAGG
DNA 2: CCTTCATTCTACGCTGTCAATCGCCTGGGCTGCACCAGCAGCTGCAGAAGGACAAGGCGC
Turning to B12, the results for the binding signal in series [2] and in series [5] were -0.91 PBM z-score against 500 random probes and -0.68 PBM z-score against 500 random probes, respectively.

B13: NRC3_random_hg19_401_o1 (dsDNA)
DNA 1: GCTCTCCATCTTGAGTACCAGCCCTGTTCTTCCAGTGCGATTGACAGCGTAGAATGAAGG
DNA 2: CCTTCATTCTACGCTGTCAATCGCACTGGAAGAACAGGGCTGGTACTCAAGATGGAGAGC
Take B13: the binding signal in series [2] was 0.41 PBM z-score against 500 random probes; in series [5], -0.32 PBM z-score against 500 random probes.

B14: NRC3_random_hg19_342_o1 (dsDNA)
DNA 1: GCATCGGGAGTGATGATAAGTAAGGCAAGCCCTGTTGCGATTGACAGCGTAGAATGAAGG
DNA 2: CCTTCATTCTACGCTGTCAATCGCAACAGGGCTTGCCTTACTTATCATCACTCCCGATGC
B14: the binding signal in series [2] is -0.7 PBM z-score against 500 random probes.

B15: NRC3_random_hg19_32_o1 (dsDNA)
DNA 1: GCTGTGTCAGACAGGCAAAGCACTTAAGATTTGTGAGCGATTGACAGCGTAGAATGAAGG
DNA 2: CCTTCATTCTACGCTGTCAATCGCTCACAAATCTTAAGTGCTTTGCCTGTCTGACACAGC
Turning to B15, in series [2], the binding signal was -0.5 PBM z-score against 500 random probes.

B16: NRC3_random_hg19_463_o1 (dsDNA)
DNA 1: GCCAGGGAGAGAGCCTTGCAAAGATGGAACAATCAGGCGATTGACAGCGTAGAATGAAGG
DNA 2: CCTTCATTCTACGCTGTCAATCGCCTGATTGTTCCATCTTTGCAAGGCTCTCTCCCTGGC
Regarding B16, the binding signal in series [2] was -0.42 PBM z-score against 500 random probes.

B17: NRC3_wobSeed137_DR5_C18G_o1 (dsDNA)
DNA 1: GCATATGTAGGTTACATGCGGGTCATTCAGGCTATGGCGATTGACAGCGTAGAATGAAGG
DNA 2: CCTTCATTCTACGCTGTCAATCGCCATAGCCTGAATGACCCGCATGTAACCTACATATGC
On to B17, for which the figures for the binding signal in series [2] and in series [5] were 3.01 PBM z-score against 500 random probes and 3.89 PBM z-score against 500 random probes, respectively.

B18: NRC3_random_hg19_134_o1 (dsDNA)
DNA 1: GCAGCTCCACTTCATGCCAGGCCTGGGCTAGAGGCTGCGATTGACAGCGTAGAATGAAGG
DNA 2: CCTTCATTCTACGCTGTCAATCGCAGCCTCTAGCCCAGGCCTGGCATGAAGTGGAGCTGC
B18: the binding signal in series [2] was -0.78 PBM z-score against 500 random probes; in series [6] it was -0.54 PBM z-score against 500 random probes.

B19: NRC3_random_hg19_338_o1 (dsDNA)
DNA 1: GCACACAGAGAAACTCTTGCCAGTAGCAGTAGTACCGCGATTGACAGCGTAGAATGAAGG
DNA 2: CCTTCATTCTACGCTGTCAATCGCGGTACTACTGCTACTGGCAAGAGTTTCTCTGTGTGC
For the molecule B19, in series [2], the binding signal is -0.32 PBM z-score against 500 random probes.

B20: NRC3_random_hg19_56_o1 (dsDNA)
DNA 1: GCTGTGCCTTCTGCACAAGGTAGGTCTACATCCACTGCGATTGACAGCGTAGAATGAAGG
DNA 2: CCTTCATTCTACGCTGTCAATCGCAGTGGATGTAGACCTACCTTGTGCAGAAGGCACAGC
Regarding B20, the binding signal in series [2] was -0.54 PBM z-score against 500 random probes.

B21: NRC3_wobSeed89_DR3_G19A_o1 (dsDNA)
DNA 1: GCCTATGTAGGTTAAGGGAGTCATTCAGTTTGAAAGGCGATTGACAGCGTAGAATGAAGG
DNA 2: CCTTCATTCTACGCTGTCAATCGCCTTTCAAACTGAATGACTCCCTTAACCTACATAGGC
As to B21, the binding signal in series [2] was 0.45 PBM z-score against 500 random probes; in series [5], 0.49 PBM z-score against 500 random probes; in series [6], 0.48 PBM z-score against 500 random probes.

B22: NRC3_wobSeed141_DR5_C6G_o1 (dsDNA)
DNA 1: GCAGTGAAAGTTCAGGACGAGGTAACGTAAAGCACGGCGATTGACAGCGTAGAATGAAGG
DNA 2: CCTTCATTCTACGCTGTCAATCGCCGTGCTTTACGTTACCTCGTCCTGAACTTTCACTGC
With B22, the binding signal was 3 PBM z-score against 500 random probes in series [2] and 3.27 PBM z-score against 500 random probes in series [4].

B23: NRC3_random_hg19_219_o1 (dsDNA)
DNA 1: GCTATAGCTCACAACCTCATACCAGGAAGGGCTCAGGCGATTGACAGCGTAGAATGAAGG
DNA 2: CCTTCATTCTACGCTGTCAATCGCCTGAGCCCTTCCTGGTATGAGGTTGTGAGCTATAGC
In the case of B23, the results for the binding signal in series [1] and in series [2] were -0.28 PBM z-score against 500 random probes and -0.27 PBM z-score against 500 random probes, respectively.

B24: NRC3_random_hg19_237_o1 (dsDNA)
DNA 1: GCTGCAGAGAGGCCACCAGCCAGCCCAGACCCATGCGCGATTGACAGCGTAGAATGAAGG
DNA 2: CCTTCATTCTACGCTGTCAATCGCGCATGGGTCTGGGCTGGCTGGTGGCCTCTCTGCAGC
In the case of B24, the binding signal in series [2] was -0.57 PBM z-score against 500 random probes; in series [3], 0.12 PBM z-score against 500 random probes.

B25: NRC3_random_hg19_464_o1 (dsDNA)
DNA 1: GCAGAACCTCATTGCTTATCGCACAGATGAGATGCGGCGATTGACAGCGTAGAATGAAGG
DNA 2: CCTTCATTCTACGCTGTCAATCGCCGCATCTCATCTGTGCGATAAGCAATGAGGTTCTGC
For the molecule B25, the binding signal is -0.05 PBM z-score against 500 random probes in series [2], -0.25 PBM z-score against 500 random probes in series [4] and 0.3 PBM z-score against 500 random probes in series [3].
